B1: PEP07986-neutral linker-A500 (Compound 2) (other)
chain: MGSLAEAKEAANAELDSYGVSDFYKRLIDKAKTVEGVEALKDAILAALPTGGGGSGGGSGGGSGGGSASVPIQKVQDDTKTLIKTIVTRINDISHTQSVSSKQKVTGLEFIPGLHPILTLSKMDQTLAVYQQILTSMPSRNVIQISNDLENLRDLLHVLAFSKSCHLPQASGLETLESLGGVLEASGYSTEVVALSRLQGSLQDMLQQLDLSPGC
notes: also called Cmpd 2; PEP07986-Neutral-A500
B2: PEP07986-negative linker-A500 (Compound 12) (other)
chain: MGSLAEAKEAANAELDSYGVSDFYKRLIDKAKTVEGVEALKDAILAALPTGGEGGEGGEGGEGGEGGEASVPIQKVQDDTKTLIKTIVTRINDISHTQSVSSKQKVTGLEFIPGLHPILTLSKMDQTLAVYQQILTSMPSRNVIQISNDLENLRDLLHVLAFSKSCHLPQASGLETLESLGGVLEASGYSTEVVALSRLQGSLQDMLQQLDLSPGC
notes: also called Cmpd 12; PEP07986-Negative-A500

Biological target: T1, monkey serum albumin (monkey)
T1 construct: also called Monkey SA
T1 sequence (Q28522 17-600): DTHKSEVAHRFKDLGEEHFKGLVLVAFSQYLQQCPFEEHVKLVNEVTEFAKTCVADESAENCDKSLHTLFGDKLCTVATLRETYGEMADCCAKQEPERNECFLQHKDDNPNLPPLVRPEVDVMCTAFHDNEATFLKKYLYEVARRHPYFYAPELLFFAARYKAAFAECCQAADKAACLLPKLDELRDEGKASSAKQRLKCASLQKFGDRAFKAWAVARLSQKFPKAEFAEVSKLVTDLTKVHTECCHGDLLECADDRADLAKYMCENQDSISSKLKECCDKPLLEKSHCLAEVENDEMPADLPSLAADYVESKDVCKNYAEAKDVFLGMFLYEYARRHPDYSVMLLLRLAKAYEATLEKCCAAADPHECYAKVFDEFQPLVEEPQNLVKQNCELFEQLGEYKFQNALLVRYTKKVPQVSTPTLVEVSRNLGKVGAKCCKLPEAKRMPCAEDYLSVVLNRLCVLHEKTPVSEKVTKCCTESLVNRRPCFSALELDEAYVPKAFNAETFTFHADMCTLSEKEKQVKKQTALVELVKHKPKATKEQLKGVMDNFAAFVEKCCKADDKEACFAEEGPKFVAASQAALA
Experiment: SPR (BioRad ProteOn XPR36), albumin amine-coupled to GLC chip, analyte from 5 nM in 3-fold dilutions, 25 C
Description: All studies were conducted on a BioRad ProteOn XPR36 system using a GLC sensor chip at 25 degrees C. For amine coupling the GLC chip was activated for 5 minutes using a 1:1 mixture of sulfo-NHS/EDC diluted 30-fold from the initial stock in water as shown below. Each albumin sample was diluted to 25 ug/ml in 10 mM Na Acetate pH 5.0 and injected for 5 minutes over separate sensor surfaces. Each surface was then blocked with 1 M ethanolamine pH 8.5. Each albumin was coupled at a density of 2000-5000 in resonance units.
The binding of an engineered polypeptide was tested using 5 nM as the highest concentration in a three-fold dilution series. The running buffer contained 10 mM HEPES pH 7.4, 150 mM NaCl, 3 mM EDTA and 0.005% tween-20. All samples were tested using a 3-fold dilution series. Each concentration series was tested in duplicate. The dissociation phase for the highest concentration […] was monitored for 3 hours.

Row | Binder | Kd [pM]
1 | B1 | 405
2 | B2 | 400

Source: US20160207974A1 (published 2016)
